Starred links: 1 amine or outer side, 2 acyl side, 3 side chain; linkers in the order of their positions; H or OH if unused. Non-standard residues stand in square brackets, D forms with d. Groups on a side chain read outwards from the residue. No end group written: not given here. *: point of attachment. C20 diacid = O=C(O)CCCCCCCCCCCCCCCCCCC(=O)*; C18 diacid = O=C(O)CCCCCCCCCCCCCCCCC(=O)*; γGlu = O=C(O)[C@H](CCC(=O)[*:2])N[*:1]; αMeF = C[C@](N)(Cc1ccccc1)C(=O)O; (PEG)2 = polyethylene glycol 2; PEG4 = NCCOCCOCCOCCOCCC(=O)O; AEEA = NCCOCCOCC(=O)O; Aib = CC(C)(N)C(=O)O
B1: Peptide 246 (peptide)
peptide: H[Aib]HGS[αMeF]TSDVSK[αMeF]LDSRAAK([AEEA-AEEA-γGlu-γGlu-C20 diacid])D[αMeF]VESIANT-NH2
modifications: N-terminus assumed
SMILES: CC[C@H](C)[C@H](NC(=O)[C@H](CO)NC(=O)[C@H](CCC(=O)O)NC(=O)[C@@H](NC(=O)[C@](C)(Cc1ccccc1)NC(=O)[C@H](CC(=O)O)NC(=O)[C@H](CCCCNC(=O)COCCOCCNC(=O)COCCOCCNC(=O)CC[C@H](NC(=O)CC[C@H](NC(=O)CCCCCCCCCCCCCCCCCCC(=O)O)C(=O)O)C(=O)O)NC(=O)[C@H](C)NC(=O)[C@H](C)NC(=O)[C@H](CCCNC(=N)N)NC(=O)[C@H](CO)NC(=O)[C@H](CC(=O)O)NC(=O)[C@H](CC(C)C)NC(=O)[C@](C)(Cc1ccccc1)NC(=O)[C@H](CCCCN)NC(=O)[C@H](CO)NC(=O)[C@@H](NC(=O)[C@H](CC(=O)O)NC(=O)[C@H](CO)NC(=O)[C@@H](NC(=O)[C@](C)(Cc1ccccc1)NC(=O)[C@H](CO)NC(=O)CNC(=O)[C@H](Cc1c[nH]cn1)NC(=O)C(C)(C)NC(=O)[C@@H](N)Cc1c[nH]cn1)[C@@H](C)O)C(C)C)C(C)C)C(=O)N[C@@H](C)C(=O)N[C@@H](CC(N)=O)C(=O)N[C@H](C(N)=O)[C@@H](C)O
B2: Peptide 268 (peptide)
peptide: H[Aib]HGS[αMeF]TSDVSK[αMeF]LDSRAAK([AEEA-γGlu-C20 diacid])D[αMeF]VQ[Aib]IANT-NH2
modifications: N-terminus assumed
SMILES: CC[C@H](C)[C@H](NC(=O)C(C)(C)NC(=O)[C@H](CCC(N)=O)NC(=O)[C@@H](NC(=O)[C@](C)(Cc1ccccc1)NC(=O)[C@H](CC(=O)O)NC(=O)[C@H](CCCCNC(=O)COCCOCCNC(=O)CC[C@H](NC(=O)CCCCCCCCCCCCCCCCCCC(=O)O)C(=O)O)NC(=O)[C@H](C)NC(=O)[C@H](C)NC(=O)[C@H](CCCNC(=N)N)NC(=O)[C@H](CO)NC(=O)[C@H](CC(=O)O)NC(=O)[C@H](CC(C)C)NC(=O)[C@](C)(Cc1ccccc1)NC(=O)[C@H](CCCCN)NC(=O)[C@H](CO)NC(=O)[C@@H](NC(=O)[C@H](CC(=O)O)NC(=O)[C@H](CO)NC(=O)[C@@H](NC(=O)[C@](C)(Cc1ccccc1)NC(=O)[C@H](CO)NC(=O)CNC(=O)[C@H](Cc1c[nH]cn1)NC(=O)C(C)(C)NC(=O)[C@@H](N)Cc1c[nH]cn1)[C@@H](C)O)C(C)C)C(C)C)C(=O)N[C@@H](C)C(=O)N[C@@H](CC(N)=O)C(=O)N[C@H](C(N)=O)[C@@H](C)O
B3: Peptide 261 (peptide)
peptide: H[Aib]HGS[αMeF]TSDVSK[αMeF]LDSRAAK([PEG4-γGlu-C18 diacid])D[αMeF]VQ[Aib]IANT-NH2
modifications: N-terminus assumed
SMILES: CC[C@H](C)[C@H](NC(=O)C(C)(C)NC(=O)[C@H](CCC(N)=O)NC(=O)[C@@H](NC(=O)[C@](C)(Cc1ccccc1)NC(=O)[C@H](CC(=O)O)NC(=O)[C@H](CCCCNC(=O)CCOCCOCCOCCOCCNC(=O)CC[C@H](NC(=O)CCCCCCCCCCCCCCCCC(=O)O)C(=O)O)NC(=O)[C@H](C)NC(=O)[C@H](C)NC(=O)[C@H](CCCNC(=N)N)NC(=O)[C@H](CO)NC(=O)[C@H](CC(=O)O)NC(=O)[C@H](CC(C)C)NC(=O)[C@](C)(Cc1ccccc1)NC(=O)[C@H](CCCCN)NC(=O)[C@H](CO)NC(=O)[C@@H](NC(=O)[C@H](CC(=O)O)NC(=O)[C@H](CO)NC(=O)[C@@H](NC(=O)[C@](C)(Cc1ccccc1)NC(=O)[C@H](CO)NC(=O)CNC(=O)[C@H](Cc1c[nH]cn1)NC(=O)C(C)(C)NC(=O)[C@@H](N)Cc1c[nH]cn1)[C@@H](C)O)C(C)C)C(C)C)C(=O)N[C@@H](C)C(=O)N[C@@H](CC(N)=O)C(=O)N[C@H](C(N)=O)[C@@H](C)O
B4: Peptide 244 (peptide)
peptide: H[Aib]HGS[αMeF]TSDVSK[αMeF]LDSRAAK([AEEA-AEEA-γGlu-γGlu-C20 diacid])D[αMeF]VQSIANT-NH2
modifications: N-terminus assumed
SMILES: CC[C@H](C)[C@H](NC(=O)[C@H](CO)NC(=O)[C@H](CCC(N)=O)NC(=O)[C@@H](NC(=O)[C@](C)(Cc1ccccc1)NC(=O)[C@H](CC(=O)O)NC(=O)[C@H](CCCCNC(=O)COCCOCCNC(=O)COCCOCCNC(=O)CC[C@H](NC(=O)CC[C@H](NC(=O)CCCCCCCCCCCCCCCCCCC(=O)O)C(=O)O)C(=O)O)NC(=O)[C@H](C)NC(=O)[C@H](C)NC(=O)[C@H](CCCNC(=N)N)NC(=O)[C@H](CO)NC(=O)[C@H](CC(=O)O)NC(=O)[C@H](CC(C)C)NC(=O)[C@](C)(Cc1ccccc1)NC(=O)[C@H](CCCCN)NC(=O)[C@H](CO)NC(=O)[C@@H](NC(=O)[C@H](CC(=O)O)NC(=O)[C@H](CO)NC(=O)[C@@H](NC(=O)[C@](C)(Cc1ccccc1)NC(=O)[C@H](CO)NC(=O)CNC(=O)[C@H](Cc1c[nH]cn1)NC(=O)C(C)(C)NC(=O)[C@@H](N)Cc1c[nH]cn1)[C@@H](C)O)C(C)C)C(C)C)C(=O)N[C@@H](C)C(=O)N[C@@H](CC(N)=O)C(=O)N[C@H](C(N)=O)[C@@H](C)O
B5: Peptide 269 (peptide)
peptide: H[Aib]HGS[αMeF]TSDVSK[αMeF]LDSRAAK([PEG4-γGlu-γGlu-C20 diacid])D[αMeF]VQ[Aib]IANT-NH2
modifications: N-terminus assumed
SMILES: CC[C@H](C)[C@H](NC(=O)C(C)(C)NC(=O)[C@H](CCC(N)=O)NC(=O)[C@@H](NC(=O)[C@](C)(Cc1ccccc1)NC(=O)[C@H](CC(=O)O)NC(=O)[C@H](CCCCNC(=O)CCOCCOCCOCCOCCNC(=O)CC[C@H](NC(=O)CC[C@H](NC(=O)CCCCCCCCCCCCCCCCCCC(=O)O)C(=O)O)C(=O)O)NC(=O)[C@H](C)NC(=O)[C@H](C)NC(=O)[C@H](CCCNC(=N)N)NC(=O)[C@H](CO)NC(=O)[C@H](CC(=O)O)NC(=O)[C@H](CC(C)C)NC(=O)[C@](C)(Cc1ccccc1)NC(=O)[C@H](CCCCN)NC(=O)[C@H](CO)NC(=O)[C@@H](NC(=O)[C@H](CC(=O)O)NC(=O)[C@H](CO)NC(=O)[C@@H](NC(=O)[C@](C)(Cc1ccccc1)NC(=O)[C@H](CO)NC(=O)CNC(=O)[C@H](Cc1c[nH]cn1)NC(=O)C(C)(C)NC(=O)[C@@H](N)Cc1c[nH]cn1)[C@@H](C)O)C(C)C)C(C)C)C(=O)N[C@@H](C)C(=O)N[C@@H](CC(N)=O)C(=O)N[C@H](C(N)=O)[C@@H](C)O

Target: human GLP-1 receptor (human, UniProt P43220)
Assay: cell-based or functional assay

| Binder | hGLP-1R EC50 (pM) |
| --- | --- |
| H[Aib]HGS[αMeF]TSDVSK[αMeF]LDSR[Aib]AK([AEEA-AEEA-γGlu-C18 diacid])DFVESIANT-NH2 [Peptide 251] | 79.8 |
| H[Aib]HGS[αMeF]TSDVSK[αMeF]LDSRAAK([PEG4-γGlu-γGlu-C18 diacid])D[αMeF]VQ[Aib]IANT-NH2 [Peptide 263] | 25.4 |
| H[Aib]HGS[αMeF]TSDVSK[αMeF]LDSRAAK([AEEA-γGlu-AEEA-γGlu-C20 diacid])D[αMeF]VQ[Aib]IANT-NH2 [Peptide 266] | 66.5 |
| H[Aib]HGS[αMeF]TSDVSK[αMeF]LDSRAAK([AEEA-γGlu-C18 diacid])D[αMeF]VQ[Aib]IANT-NH2 [Peptide 262] | 13 |
| H[Aib]HGS[αMeF]TSDVSK[αMeF]LDSRAAK([(PEG)2-(PEG)2-γGlu-γGlu-C20 diacid])D[αMeF]VQ[Aib]IANT-NH2 [Peptide 264] | 69.5 |
| B1 | 320 |
| H[Aib]HGS[αMeF]TSDVSK[αMeF]LDSR[Aib]AK([γGlu-C18 diacid])DFVESIANT-NH2 [Peptide 254] | 102 |
| H[Aib]HGS[αMeF]TSDVSK[αMeF]LDSRAAK([AEEA-γGlu-AEEA-C18 diacid])D[αMeF]VQ[Aib]IANT-NH2 [Peptide 259] | 19.1 |
| B2 | 39.5 |
| H[Aib]HGS[αMeF]TSDVSK[αMeF]LDSRAAK([(PEG)2-(PEG)2-γGlu-γGlu-C18 diacid])D[αMeF]VQ[Aib]IANT-NH2 [Peptide 258] | 34 |
| H[Aib]HGS[αMeF]TSDVSK[αMeF]LDSQAAK([AEEA-AEEA-γGlu-γGlu-C20 diacid])D[αMeF]VQ[Aib]IANT-NH2 [Peptide 256] | 346 |
| B3 | 16.2 |
| H[Aib]HGS[αMeF]TSDVSK[αMeF]LDSRAAK([AEEA-γGlu-AEEA-γGlu-C18 diacid])D[αMeF]VQ[Aib]IANT-NH2 [Peptide 260] | 33.1 |
| H[Aib]HGS[αMeF]TSDVSK[αMeF]LDSRAAK([PEG4-γGlu-C20 diacid])D[αMeF]VQ[Aib]IANT-NH2 [Peptide 267] | 65.6 |
| H[Aib]HGS[αMeF]TSDVSK[αMeF]LDSR[Aib]AK([AEEA-γGlu-C18 diacid])DFVESIANT-NH2 [Peptide 253] | 75.5 |
| H[Aib]HGS[αMeF]TSDVSK[αMeF]LDSRAAK([γGlu-γGlu-C18 diacid])D[αMeF]VQ[Aib]IANT-NH2 [Peptide 270] | 24.4 |
| H[Aib]HGS[αMeF]TSDVSK[αMeF]LDSRAAK([AEEA-γGlu-AEEA-C20 diacid])D[αMeF]VQ[Aib]IANT-NH2 [Peptide 265] | 71.2 |
| B4 | 143 |
| B5 | 52 |

Target: human glucagon receptor (human, UniProt P47871)
Assay: cell-based or functional assay

| Binder | hGluc-R EC50 (pM) |
| --- | --- |
| H[Aib]HGS[αMeF]TSDVSK[αMeF]LDSR[Aib]AK([AEEA-AEEA-γGlu-C18 diacid])DFVESIANT-NH2 [Peptide 251] | 248 |
| H[Aib]HGS[αMeF]TSDVSK[αMeF]LDSRAAK([PEG4-γGlu-γGlu-C18 diacid])D[αMeF]VQ[Aib]IANT-NH2 [Peptide 263] | 64.6 |
| H[Aib]HGS[αMeF]TSDVSK[αMeF]LDSRAAK([AEEA-γGlu-AEEA-γGlu-C20 diacid])D[αMeF]VQ[Aib]IANT-NH2 [Peptide 266] | 293 |
| H[Aib]HGS[αMeF]TSDVSK[αMeF]LDSRAAK([AEEA-γGlu-C18 diacid])D[αMeF]VQ[Aib]IANT-NH2 [Peptide 262] | 11.7 |
| H[Aib]HGS[αMeF]TSDVSK[αMeF]LDSRAAK([(PEG)2-(PEG)2-γGlu-γGlu-C20 diacid])D[αMeF]VQ[Aib]IANT-NH2 [Peptide 264] | 297 |
| B1 | 557 |
| H[Aib]HGS[αMeF]TSDVSK[αMeF]LDSR[Aib]AK([γGlu-C18 diacid])DFVESIANT-NH2 [Peptide 254] | 125 |
| H[Aib]HGS[αMeF]TSDVSK[αMeF]LDSRAAK([AEEA-γGlu-AEEA-C18 diacid])D[αMeF]VQ[Aib]IANT-NH2 [Peptide 259] | 34.8 |
| B2 | 29.3 |
| H[Aib]HGS[αMeF]TSDVSK[αMeF]LDSRAAK([(PEG)2-(PEG)2-γGlu-γGlu-C18 diacid])D[αMeF]VQ[Aib]IANT-NH2 [Peptide 258] | 93.1 |
| H[Aib]HGS[αMeF]TSDVSK[αMeF]LDSQAAK([AEEA-AEEA-γGlu-γGlu-C20 diacid])D[αMeF]VQ[Aib]IANT-NH2 [Peptide 256] | 1310 |
| B3 | 29.4 |
| H[Aib]HGS[αMeF]TSDVSK[αMeF]LDSRAAK([AEEA-γGlu-AEEA-γGlu-C18 diacid])D[αMeF]VQ[Aib]IANT-NH2 [Peptide 260] | 76.9 |
| H[Aib]HGS[αMeF]TSDVSK[αMeF]LDSRAAK([PEG4-γGlu-C20 diacid])D[αMeF]VQ[Aib]IANT-NH2 [Peptide 267] | 128 |
| H[Aib]HGS[αMeF]TSDVSK[αMeF]LDSR[Aib]AK([AEEA-γGlu-C18 diacid])DFVESIANT-NH2 [Peptide 253] | 53.1 |
| H[Aib]HGS[αMeF]TSDVSK[αMeF]LDSRAAK([γGlu-γGlu-C18 diacid])D[αMeF]VQ[Aib]IANT-NH2 [Peptide 270] | 31.3 |
| H[Aib]HGS[αMeF]TSDVSK[αMeF]LDSRAAK([AEEA-γGlu-AEEA-C20 diacid])D[αMeF]VQ[Aib]IANT-NH2 [Peptide 265] | 131 |
| B4 | 420 |
| B5 | 271 |
